Results as given in the FLAb antibody collection (doi:10.7554/elife.23156).

B1: scFv; the commonest letter at each place (parent)
chain 1: EVKLDETGGGLVQPGRPMKLSCVASGFTFSDYWMNWVRQSPEKGLEWVAQIRNKPYNYETYYSDSVKGRFTISRDDSKSSVYLQMNNLRVEDMGIYYCTGSYYGMDYWGQGTSVTVS
chain 2: DVVMTQTPLSLPVSLGDQASISCRSSQSLVHSNGNTYLRWYLQKPGQSPKVLIYKVSNRFSGVPDRFSGSGSGTDFTLKISRVEAEDLGVYFCSQSTHVPWTFGGGTKLEIK

Tests used:
fluorescein = variants of: B1; assay: Kd (Tite-Seq); settings: with fluorescein; format: scFv 4-4-20, heavy + light
[1] = variants of: B1; assay: yeast surface expression (ratio to wild type); higher = more expressed; settings: format: scFv 4-4-20, heavy + light

Row | Variant | Kd (fluorescein) [µM] | yeast surface expression [1]
1 | chain 1 S30N W33D | ≥ 10 | 1.05
2 | chain 1 G104T D106C Y107Q | ≥ 10 | 0.31
3 | chain 1 D106W W108F | ≥ 10 | 0.225
4 | chain 1 S30N Y32S | 0.0146 | 1.14
5 | chain 1 S30K V37A | 0.0272 | 0.745
6 | chain 1 M34G W36A | ≥ 10 | 1.01
7 | chain 1 G100R | ≥ 10 | 0.624
8 | chain 1 M34A W36T | ≥ 10 | 0.544
9 | chain 1 G104E Y107A | ≥ 10 | 0.736
10 | chain 1 F29M S30H Y32S | ≥ 10 | 0.982
11 | chain 1 F29D | ≥ 10 | 1.07
12 | chain 1 F29W | 0.0562 | 0.661
13 | chain 1 F29S | 0.0265 | 0.933
14 | chain 1 S30R N35V | ≥ 10 | 0.567
15 | chain 1 G104D Y107F | ≥ 10 | 0.945
16 | chain 1 F29M D31I | ≥ 10 | 0.518
17 | chain 1 G100D G109I | ≥ 10 | 0.553
18 | chain 1 G100N Y102D G109M | ≥ 10 | 0.159
19 | chain 1 F29P W33E | ≥ 10 | 0.722
20 | chain 1 N35D W36V | ≥ 10 | 0.668
21 | chain 1 M105P D106E | ≥ 10 | 0.7

Row | Variant | Kd (fluorescein) [µM] | yeast surface expression [1]
22 | chain 1 M105E D106C | ≥ 10 | 0.779
23 | chain 1 D106F Y107D | ≥ 10 | 0.296
24 | chain 1 G100W D106C | ≥ 10 | 0.437
25 | chain 1 G100Y G109W | ≥ 10 | 0.26
26 | chain 1 D31Y M34K | 0.676 | 0.834
27 | chain 1 M34P | ≥ 10 | 0.508
28 | chain 1 M34T | 0.00293 | 0.777
29 | chain 1 D31R W36N | ≥ 10 | 1.06
30 | chain 1 G100T M105C | ≥ 10 | 0.754
31 | chain 1 G100M S101E W108V | ≥ 10 | 0.515
32 | chain 1 M34A V37I | 0.495 | 0.837
33 | chain 1 G100H D106C | ≥ 10 | 0.222
34 | chain 1 F29S V37C | 0.00638 | 0.758
35 | chain 1 F29C N35I | ≥ 10 | 1.12
36 | chain 1 D31M | 0.00194 | 0.58
37 | chain 1 D31A V37E | ≥ 10 | 2.19
38 | chain 1 M105T Y107R | ≥ 10 | 0.527
39 | chain 1 G104I Y107D | ≥ 10 | 0.2
40 | chain 1 M105D D106G | ≥ 10 | 0.347
41 | chain 1 F29P Y32P | ≥ 10 | 0.856
42 | chain 1 F29Q W33I | ≥ 10 | 0.707

Row | Variant | Kd (fluorescein) [µM] | yeast surface expression [1]
43 | chain 1 F29S S30H | 0.832 | 0.945
44 | chain 1 D106I W108Q | ≥ 10 | 0.395
45 | chain 1 G104S W108S | ≥ 10 | 0.304
46 | chain 1 M34P N35D | ≥ 10 | 0.873
47 | chain 1 N35A | ≥ 10 | 0.902
48 | chain 1 D31P Y32K | ≥ 10 | 0.708
49 | chain 1 D31V M34C | ≥ 10 | 0.411
50 | chain 1 D31W W33G | 9.02 | 0.542
51 | chain 1 M105V W108D | ≥ 10 | 0.437
52 | chain 1 M105V W108A | ≥ 10 | 0.434
53 | chain 1 M105L Y107I | 2.34 | 1.09
54 | chain 1 S30D W33N | ≥ 10 | 1.07
55 | chain 1 F29W W36Y | ≥ 10 | 0.591
56 | chain 1 D106M | ≥ 10 | 0.574
57 | chain 1 G100V S101H | ≥ 10 | 0.872
58 | chain 1 G100M Y107G | ≥ 10 | 0.575
59 | chain 1 G100M Y107T | ≥ 10 | 0.729
60 | chain 1 G100E M105D | ≥ 10 | 0.296
61 | chain 1 S30P W33Q W36F | ≥ 10 | 0.838

Second part, led by results:

Row | Kd (fluorescein) [µM] | Variant | yeast surface expression [1]
62 | ≥ 10 | chain 1 Y102H D106Q | 0.937
63 | ≥ 10 | chain 1 Y103N G104T Y107K | 0.619
64 | ≥ 10 | chain 1 Y103C G109Y | 0.494
65 | ≥ 10 | chain 1 S101D Y103K | 0.764
66 | ≥ 10 | chain 1 Y103N G109P | 0.519
67 | 0.0592 | chain 1 T28E M34S | 0.742
68 | 1.14 | chain 1 Y103M M105N | 1.52
69 | ≥ 10 | chain 1 Y103A G104A | 0.911
70 | ≥ 10 | chain 1 Y32M V37T | 0.538
71 | ≥ 10 | chain 1 Y103M M105H D106Y | 0.63
72 | ≥ 10 | chain 1 Y107A G109L | 0.218
73 | ≥ 10 | chain 1 Y32M W33D V37C | 0.778
74 | 0.000399 | chain 1 W108T | 0.775
75 | ≥ 10 | chain 1 Y103V G104W | 0.419
76 | ≥ 10 | chain 1 W33S W36L | 0.535
77 | 3.94 | chain 1 Y102H Y103C | 0.682
78 | 0.0189 | chain 1 T28F M34A | 0.566
79 | ≥ 10 | chain 1 Y103T G104W | 0.534
80 | 0.00361 | chain 1 Y102W | 0.638
81 | 0.000869 | chain 1 Y102S | 1.14
82 | 0.00162 | chain 1 Y102A | 1.17
83 | ≥ 10 | chain 1 Y32G V37P | 0.972
84 | 0.00115 | chain 1 T28P D31S | 1.07
85 | 8.34 | chain 1 W36R | 0.957
86 | ≥ 10 | chain 1 S101V Y102E | 0.509
87 | ≥ 10 | chain 1 Y32Q W33N | 0.726
88 | ≥ 10 | chain 1 S101C Y103V D106I | 0.168

Row | Kd (fluorescein) [µM] | Variant | yeast surface expression [1]
89 | 0.102 | chain 1 Y107R | 0.767
90 | ≥ 10 | chain 1 Y32Q | 0.929
91 | ≥ 10 | chain 1 Y32T | 1.04
92 | ≥ 10 | chain 1 Y102V Y107D | 0.452
93 | ≥ 10 | chain 1 T28Q N35R | 0.537
94 | ≥ 10 | chain 1 Y102S D106R | 0.499
95 | 0.00158 | chain 1 T28M S30A W36F | 0.845
96 | ≥ 10 | chain 1 S101C M105Y Y107D | 0.281
97 | ≥ 10 | chain 1 S101I G109I | 0.219
98 | ≥ 10 | chain 1 S101L M105F | 0.521
99 | ≥ 10 | chain 1 S101D Y107I | 1.02
100 | ≥ 10 | chain 1 Y32L W36Q | 0.875
101 | 0.02 | chain 1 Y103C M105L | 0.641
102 | ≥ 10 | chain 1 T28A W33S | 0.826
103 | ≥ 10 | chain 1 Y102Q Y107C | 0.353
104 | ≥ 10 | chain 1 Y103D G104Y | 0.898
105 | ≥ 10 | chain 1 S101R W108H | 0.261
106 | 0.00606 | chain 1 V37T | 0.626
107 | 0.00239 | chain 1 V37I | 0.916
108 | 1.14 | chain 1 V37L | 0.782
109 | 0.00309 | chain 1 V37N | 0.62
110 | 7.72 | chain 1 Y32Q W33V N35E | 1.51
111 | ≥ 10 | chain 1 Y107L G109V | 0.298
112 | ≥ 10 | chain 1 T28V Y32N | 0.765
113 | ≥ 10 | chain 1 Y32R N35K | 1.99
114 | ≥ 10 | chain 1 Y103L W108D | 0.501
115 | ≥ 10 | chain 1 S101V Y103V | 0.316
